Test results published in patent US20230295335A1 (published 2023).

How the values were obtained:
[1] = target: T1, recombinant human EpCAM (R&D systems, cat no 9277-EP) (human, UniProt P16422 24-265); test: BLI (Octet HTX); His-tagged human EpCAM on anti-Penta-HIS sensors, antibody 1.56-100 nM as analyte
T1 construct: also called human EpCAM extracellular domain
T1 sequence: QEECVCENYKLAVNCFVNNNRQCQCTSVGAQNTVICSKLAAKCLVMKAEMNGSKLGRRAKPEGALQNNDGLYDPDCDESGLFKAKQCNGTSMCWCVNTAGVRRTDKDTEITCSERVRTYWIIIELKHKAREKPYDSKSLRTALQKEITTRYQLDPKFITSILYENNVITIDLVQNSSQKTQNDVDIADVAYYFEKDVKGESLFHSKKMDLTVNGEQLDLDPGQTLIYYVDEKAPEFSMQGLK

[2] = target: T1, recombinant human EpCAM (R&D systems, …); test: BLI (Octet HTX); His-tagged human EpCAM on anti-Penta-HIS sensors, antibody as analyte; 1:1 global full fit
[3] = target: T2, full length mouse EpCAM on CHO-S cells (mouse, UniProt Q99JW5 24-315); test: flow cytometry on CHO-S cells transfected with mouse EpCAM
T2 sequence: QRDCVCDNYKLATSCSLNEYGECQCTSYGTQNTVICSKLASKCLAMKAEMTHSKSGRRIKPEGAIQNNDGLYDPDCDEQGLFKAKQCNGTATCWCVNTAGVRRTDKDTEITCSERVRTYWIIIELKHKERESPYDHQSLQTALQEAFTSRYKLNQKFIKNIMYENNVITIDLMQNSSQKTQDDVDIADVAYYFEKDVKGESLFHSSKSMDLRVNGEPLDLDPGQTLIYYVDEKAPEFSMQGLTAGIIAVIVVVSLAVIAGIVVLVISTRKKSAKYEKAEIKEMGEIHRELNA

[4] = target: T3, full length cynomolgus monkey EpCAM on CHO-S cells (cynomolgus monkey, UniProt Q1WER1 24-314 (rhesus entry)); test: flow cytometry on CHO-S cells transfected with cynomolgus monkey EpCAM
T3 sequence: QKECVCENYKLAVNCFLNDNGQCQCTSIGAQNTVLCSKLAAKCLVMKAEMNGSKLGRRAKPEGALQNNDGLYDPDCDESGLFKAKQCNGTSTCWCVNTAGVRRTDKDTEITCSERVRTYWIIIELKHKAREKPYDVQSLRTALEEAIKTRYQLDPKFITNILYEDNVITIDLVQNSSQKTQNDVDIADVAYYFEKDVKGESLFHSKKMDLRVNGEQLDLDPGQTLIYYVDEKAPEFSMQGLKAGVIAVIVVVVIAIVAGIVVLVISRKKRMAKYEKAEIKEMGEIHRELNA

[5] = target: T4, full length human EpCAM on cells (human, UniProt P16422 24-314); test: flow cytometry on CHO-S cells transfected with human EpCAM
T4 construct: the cell line is named under assay; also called EpCAM on DiFi, HPAF-II and A549 tumor cells; CHO-S cells transfected with full length human EpCAM
T4 sequence: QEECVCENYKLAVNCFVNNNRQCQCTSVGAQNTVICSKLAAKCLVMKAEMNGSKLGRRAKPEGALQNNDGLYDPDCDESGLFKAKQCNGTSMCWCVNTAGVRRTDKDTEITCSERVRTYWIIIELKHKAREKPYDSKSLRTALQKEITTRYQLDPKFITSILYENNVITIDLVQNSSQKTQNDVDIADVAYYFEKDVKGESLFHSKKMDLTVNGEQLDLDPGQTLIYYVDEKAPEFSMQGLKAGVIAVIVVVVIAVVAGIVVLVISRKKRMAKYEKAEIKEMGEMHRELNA

[6] = target: T4, full length human EpCAM on cells; test: flow cytometry on DiFi, HPAF-II and A549 tumor cells

B1: BisG2amm-EpCAM-323-A3-AALT/m4-1BB-3H3-AAKR (bispecific antibody, mouse IgG2a, kappa)
heavy 1: QIQLVQSGPELKKPGETVKISCKASGYTFTNYGMNWVRQASGEGLKWMGWINTYTGEPTYGEDFKGRFAFSLETSASTAYLQINNLKNEDTATYFCARFGNYVDYWGQGTTLTVSSAKTTAPSVYPLAPVCGDTTGSSVTLGCLVKGYFPEPVTLTWNSGSLSSGVHTFPAVLQSDLYTLSSSVTVTSSTWPSQSITCNVAHPASSTKVDKKIEPRGPTIKPCPPCKCPAPNAAGGPSVFIFPPKIKDVLMISLSPMVTCVVVDVSEDDPDVQISWFVNNVEVLTAQTQTHREDYNSTLRVVSALPIQHQDWMSGKEFKCKVNNKALPAPIERTISKPKGSVRAPQVYVLPPPEEEMTKKQVTLTCMVTDFMPEDIYVEWTNNGKTELNYKNTEPVLDSDGSYLMYSKLTVEKKNWVERNSYSCSVVHEGLHNHHTTKSFSRTPG
light 1: DIVMTQAAFSNPVTLGTSASISCRSSKNLLHSNGITYLYWYLQKPGQSPHLLIYQMSNLASGVPDRFSSSGSGTDFTLRISRVEAEDVGVYYCAQNLEIPRTFGGGTKLEIKRADAAPTVSIFPPSSEQLTSGGASVVCFLNNFYPKDINVKWKIDGSERQNGVLNSWTDQDSKDSTYSMSSTLTLTKDEYERHNSYTCEATHKTSTSPIVKSFNRNEC
heavy 2: EMQLVESGGGLVQPGRSMKLSCAGSGFTLSDYGVAWVRQAPKKGLEWVAYISYAGGTTYYRESVKGRFTISRDNAKSTLYLQMDSLRSEDTATYYCTIDGYGGYSGSHWYFDFWGPGTMVTVSSAKTTAPSVYPLAPVCGDTTGSSVTLGCLVKGYFPEPVTLTWNSGSLSSGVHTFPAVLQSDLYTLSSSVTVTSSTWPSQSITCNVAHPASSTKVDKKIEPRGPTIKPCPPCKCPAPNAAGGPSVFIFPPKIKDVLMISLSPMVTCVVVDVSEDDPDVQISWFVNNVEVLTAQTQTHREDYNSTLRVVSALPIQHQDWMSGKEFKCKVNNKALPAPIERTISKPKGSVRAPQVYVLPPPEEEMTKKQVTLTCMVKDFMPEDIYVEWTNNGKTELNYKNTEPVLDSDGSYFMYSRLRVEKKNWVERNSYSCSVVHEGLHNHHTTKSFSRTPG
light 2: DIQMTQSPSLLSASVGDRVTLNCRTSQNVYKNLAWYQQKLGEAPKLLIYNANSLQAGIPSRFSGSGSGTDFTLTISSLQPEDVATYFCQQYYSGNTFGAGTNLELKRADAAPTVSIFPPSSEQLTSGGASVVCFLNNFYPKDINVKWKIDGSERQNGVLNSWTDQDSKDSTYSMSSTLTLTKDEYERHNSYTCEATHKTSTSPIVKSFNRNEC
notes: Mouse IgG2a bispecific made by controlled Fab-arm exchange; one EpCAM arm, so monovalent for EpCAM; also called BsIgG2amm-EpCAM-323-A3-AALT/m4-1BB-3H3-AAKR; BisIgG2amm-EpCAM-323-A3-AALT/m4-1BB-3H3-AAKR
Response [1]: 1.21 nm | Kd [2]: 3.2 nM | koff [2]: 0.0011 s⁻¹ | kon [2]: 340000 M⁻¹ s⁻¹

B2: bsIgG1-b12-FEAL/EpCAM-323-A3-FEAR (bispecific antibody)
heavy 1: QVQLVQSGAEVKKPGASVKVSCQASGYRFSNFVIHWVRQAPGQRFEWMGWINPYNGNKEFSAKFQDRVTFTADTSANTAYMELRSLRSADTAVYYCARVGPYSWDDSPQDNYYMDVWGKGTTVIVSSASTKGPSVFPLAPSSKSTSGGTAALGCLVKDYFPEPVTVSWNSGALTSGVHTFPAVLQSSGLYSLSSVVTVPSSSLGTQTYICNVNHKPSNTKVDKRVEPKSCDKTHTCPPCPAPEFEGGPSVFLFPPKPKDTLMISRTPEVTCVVVAVSHEDPEVKFNWYVDGVEVHNAKTKPREEQYNSTYRVVSVLTVLHQDWLNGKEYKCKVSNKALPAPIEKTISKAKGQPREPQVYTLPPSREEMTKNQVSLTCLVKGFYPSDIAVEWESNGQPENNYKTTPPVLDSDGSFLLYSKLTVDKSRWQQGNVFSCSVMHEALHNHYTQKSLSLSPG
light 1: EIVLTQSPGTLSLSPGERATFSCRSSHSIRSRRVAWYQHKPGQAPRLVIHGVSNRASGISDRFSGSGSGTDFTLTITRVEPEDFALYYCQVYGASSYTFGQGTKLERKRTVAAPSVFIFPPSDEQLKSGTASVVCLLNNFYPREAKVQWKVDNALQSGNSQESVTEQDSKDSTYSLSSTLTLSKADYEKHKVYACEVTHQGLSSPVTKSFNRGEC
heavy 2: QIQLVQSGPELKKPGETVKISCKASGYTFTNYGMNWVRQASGEGLKWMGWINTYTGEPTYGEDFKGRFAFSLETSASTAYLQINNLKNEDTATYFCARFGNYVDYWGQGTTLTVSSASTKGPSVFPLAPSSKSTSGGTAALGCLVKDYFPEPVTVSWNSGALTSGVHTFPAVLQSSGLYSLSSVVTVPSSSLGTQTYICNVNHKPSNTKVDKRVEPKSCDKTHTCPPCPAPEFEGGPSVFLFPPKPKDTLMISRTPEVTCVVVAVSHEDPEVKFNWYVDGVEVHNAKTKPREEQYNSTYRVVSVLTVLHQDWLNGKEYKCKVSNKALPAPIEKTISKAKGQPREPQVYTLPPSREEMTKNQVSLTCLVKGFYPSDIAVEWESNGQPENNYKTTPPVLDSDGSFFLYSRLTVDKSRWQQGNVFSCSVMHEALHNHYTQKSLSLSPG
light 2: DIVMTQAAFSNPVTLGTSASISCRSSKNLLHSNGITYLYWYLQKPGQSPHLLIYQMSNLASGVPDRFSSSGSGTDFTLRISRVEAEDVGVYYCAQNLEIPRTFGGGTKLEIKRTVAAPSVFIFPPSDEQLKSGTASVVCLLNNFYPREAKVQWKVDNALQSGNSQESVTEQDSKDSTYSLSSTLTLSKADYEKHKVYACEVTHQGLSSPVTKSFNRGEC
binding result [3]: binds | binding result [4]: binds | binding result [5]: binds

B3: IgG1-b12-FEAL (antibody, V domains shown)
VH: QVQLVQSGAEVKKPGASVKVSCQASGYRFSNFVIHWVRQAPGQRFEWMGWINPYNGNKEFSAKFQDRVTFTADTSANTAYMELRSLRSADTAVYYCARVGPYSWDDSPQDNYYMDVWGKGTTVIVSS
VL: EIVLTQSPGTLSLSPGERATFSCRSSHSIRSRRVAWYQHKPGQAPRLVIHGVSNRASGISDRFSGSGSGTDFTLTITRVEPEDFALYYCQVYGASSYTFGQGTKLERKR
notes: also called negative control antibody
binding result [6]: no binding (tested: up to 50 µg/mL)
